Test results from publication PMC11889887 (2025).
Bridge positions count the residues as written; N and C are the ends. Square brackets hold non-standard residues; d marks the D form. Ends that are not written are not given here. Lys(N3) = [N-]=[N+]=NCCCC[C@H](N)C(=O)O; Pra = C#CC[C@H](N)C(=O)O

Legend:
[1] = molecular target: T1, biotinylated recombinant human αvβ8 integrin (human, UniProt P06756 31-1048; P26012 43-684, biotin (chain and site not stated) | biotin (chain and site not stated)); assay: ELISA; competition with latent TGFβ1
T1 chain 1: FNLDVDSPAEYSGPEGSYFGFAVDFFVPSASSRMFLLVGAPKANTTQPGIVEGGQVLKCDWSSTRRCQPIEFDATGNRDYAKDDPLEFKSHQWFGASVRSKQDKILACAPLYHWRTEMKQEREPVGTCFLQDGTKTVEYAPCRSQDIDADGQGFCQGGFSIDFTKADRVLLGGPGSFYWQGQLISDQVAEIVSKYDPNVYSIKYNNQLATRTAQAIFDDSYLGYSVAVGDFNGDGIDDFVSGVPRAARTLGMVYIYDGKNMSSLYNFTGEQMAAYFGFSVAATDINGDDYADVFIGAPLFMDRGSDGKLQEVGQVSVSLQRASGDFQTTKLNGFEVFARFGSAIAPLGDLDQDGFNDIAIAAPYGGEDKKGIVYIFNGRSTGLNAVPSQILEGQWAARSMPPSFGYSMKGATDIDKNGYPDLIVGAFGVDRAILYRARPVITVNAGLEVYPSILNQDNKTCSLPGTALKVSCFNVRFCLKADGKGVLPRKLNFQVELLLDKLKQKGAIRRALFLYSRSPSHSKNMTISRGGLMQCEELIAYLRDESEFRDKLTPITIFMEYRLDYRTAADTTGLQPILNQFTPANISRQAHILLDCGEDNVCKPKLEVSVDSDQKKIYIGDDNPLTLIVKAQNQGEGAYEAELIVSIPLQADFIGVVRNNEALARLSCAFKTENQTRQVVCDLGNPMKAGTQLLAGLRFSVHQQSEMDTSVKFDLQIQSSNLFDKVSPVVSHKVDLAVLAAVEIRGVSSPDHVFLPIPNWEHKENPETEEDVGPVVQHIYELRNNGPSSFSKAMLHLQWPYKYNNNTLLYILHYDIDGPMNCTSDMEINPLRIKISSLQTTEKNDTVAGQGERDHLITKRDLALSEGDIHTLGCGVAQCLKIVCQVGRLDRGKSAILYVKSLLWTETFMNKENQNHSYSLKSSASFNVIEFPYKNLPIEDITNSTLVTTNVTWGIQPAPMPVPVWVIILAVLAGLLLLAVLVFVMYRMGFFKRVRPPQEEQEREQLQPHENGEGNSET
T1 chain 2: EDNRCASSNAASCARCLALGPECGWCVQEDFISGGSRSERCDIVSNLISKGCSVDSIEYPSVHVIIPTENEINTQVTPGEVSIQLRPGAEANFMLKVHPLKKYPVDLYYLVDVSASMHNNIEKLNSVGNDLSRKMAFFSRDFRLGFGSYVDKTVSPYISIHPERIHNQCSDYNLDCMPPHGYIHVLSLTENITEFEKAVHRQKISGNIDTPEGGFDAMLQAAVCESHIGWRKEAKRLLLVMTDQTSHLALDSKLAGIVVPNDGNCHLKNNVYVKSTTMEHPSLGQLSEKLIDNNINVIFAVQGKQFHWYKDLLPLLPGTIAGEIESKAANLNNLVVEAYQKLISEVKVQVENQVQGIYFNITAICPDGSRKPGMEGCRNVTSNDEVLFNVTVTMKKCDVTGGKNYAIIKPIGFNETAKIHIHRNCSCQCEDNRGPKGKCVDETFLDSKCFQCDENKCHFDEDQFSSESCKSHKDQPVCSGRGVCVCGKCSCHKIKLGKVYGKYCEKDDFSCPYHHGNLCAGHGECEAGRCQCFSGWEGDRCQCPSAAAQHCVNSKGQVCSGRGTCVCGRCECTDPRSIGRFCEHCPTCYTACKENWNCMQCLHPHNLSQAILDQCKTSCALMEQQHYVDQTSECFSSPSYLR

[2] = molecular target: T2, biotinylated recombinant human αvβ6 integrin (human, UniProt P06756 31-1048; P18564 22-709, biotin (chain and site not stated) | biotin (chain and site not stated)); assay: ELISA; competition with latent TGFβ1
T2 chain 1: T1 chain 1
T2 chain 2: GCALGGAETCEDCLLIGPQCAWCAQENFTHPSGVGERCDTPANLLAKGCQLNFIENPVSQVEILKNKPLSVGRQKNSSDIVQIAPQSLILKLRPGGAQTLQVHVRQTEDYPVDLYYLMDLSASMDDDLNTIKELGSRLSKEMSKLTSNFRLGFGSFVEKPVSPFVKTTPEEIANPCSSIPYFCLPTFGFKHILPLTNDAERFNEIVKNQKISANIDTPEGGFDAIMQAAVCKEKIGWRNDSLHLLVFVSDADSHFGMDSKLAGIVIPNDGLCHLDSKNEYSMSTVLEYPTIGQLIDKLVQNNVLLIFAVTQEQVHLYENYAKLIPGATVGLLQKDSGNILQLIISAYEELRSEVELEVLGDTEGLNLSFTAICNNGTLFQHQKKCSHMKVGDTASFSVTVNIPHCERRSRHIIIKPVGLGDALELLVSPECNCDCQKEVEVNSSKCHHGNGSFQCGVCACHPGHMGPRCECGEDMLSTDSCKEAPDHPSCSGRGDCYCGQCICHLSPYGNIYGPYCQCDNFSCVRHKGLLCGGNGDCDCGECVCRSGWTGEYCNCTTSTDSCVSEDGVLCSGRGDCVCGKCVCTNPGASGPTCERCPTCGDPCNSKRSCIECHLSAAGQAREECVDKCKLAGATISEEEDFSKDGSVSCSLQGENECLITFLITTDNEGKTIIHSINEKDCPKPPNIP

Ki [1]: 2.74 nM | Ki [2]: 0.139 nM
B1: peptide 5a (chromogranin A-derived peptide) (peptide)
chain: CFETLRGDLRILSILR[Pra]QNL[Lys(N3)]KELQD-NH2
modifications: triazole 17-21
